The record followed here is paper PMC10616196, “A marine cryptochrome with an inverse photo-oligomerization mechanism” (Nature Communications, 2023).

The target in assay [1] is T1, PdLCry (L-CRY) (Platynereis dumerilii, UniProt Z9ZPX6J9J5, Y352A).
T1 construct: full length, N-terminal His6 tag, expressed in Sf9 insect cells (pCoofy27, baculovirus); 565 residues, model 31-556; homodimer in dark, monomer under blue light
T1 sequence (Z9ZPX6J9J5 1-565 Y352A): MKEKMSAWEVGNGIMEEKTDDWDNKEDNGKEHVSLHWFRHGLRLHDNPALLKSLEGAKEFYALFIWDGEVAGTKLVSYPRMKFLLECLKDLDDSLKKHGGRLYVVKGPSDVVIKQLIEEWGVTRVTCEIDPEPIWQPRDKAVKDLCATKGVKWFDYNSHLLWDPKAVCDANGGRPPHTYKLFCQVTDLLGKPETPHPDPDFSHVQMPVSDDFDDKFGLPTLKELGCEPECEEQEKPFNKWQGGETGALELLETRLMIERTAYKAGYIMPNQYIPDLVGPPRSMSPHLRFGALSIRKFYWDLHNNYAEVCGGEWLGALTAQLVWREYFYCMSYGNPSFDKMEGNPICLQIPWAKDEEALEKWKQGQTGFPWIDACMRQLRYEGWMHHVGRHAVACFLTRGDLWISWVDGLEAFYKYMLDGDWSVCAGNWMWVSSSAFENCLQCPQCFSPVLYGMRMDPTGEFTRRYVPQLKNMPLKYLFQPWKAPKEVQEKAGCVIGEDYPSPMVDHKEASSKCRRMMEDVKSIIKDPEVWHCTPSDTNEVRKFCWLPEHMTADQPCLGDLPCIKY
The assay can be described thus: UV/Vis spectroscopy of FAD photoreduction. Format: binding. To be noted: naturalistic sunlight, on ice; pH 8.0; co-purified FAD.

Assay [2] deals with T2, PdLCry (L-CRY) (Platynereis dumerilii, UniProt Z9ZPX6J9J5, Y352D).
T2 construct: full length, N-terminal His6 tag, expressed in Sf9 insect cells (pCoofy27, baculovirus); 565 residues, model 31-556; homodimer in dark, monomer under blue light
T2 sequence (Z9ZPX6J9J5 1-565 Y352D): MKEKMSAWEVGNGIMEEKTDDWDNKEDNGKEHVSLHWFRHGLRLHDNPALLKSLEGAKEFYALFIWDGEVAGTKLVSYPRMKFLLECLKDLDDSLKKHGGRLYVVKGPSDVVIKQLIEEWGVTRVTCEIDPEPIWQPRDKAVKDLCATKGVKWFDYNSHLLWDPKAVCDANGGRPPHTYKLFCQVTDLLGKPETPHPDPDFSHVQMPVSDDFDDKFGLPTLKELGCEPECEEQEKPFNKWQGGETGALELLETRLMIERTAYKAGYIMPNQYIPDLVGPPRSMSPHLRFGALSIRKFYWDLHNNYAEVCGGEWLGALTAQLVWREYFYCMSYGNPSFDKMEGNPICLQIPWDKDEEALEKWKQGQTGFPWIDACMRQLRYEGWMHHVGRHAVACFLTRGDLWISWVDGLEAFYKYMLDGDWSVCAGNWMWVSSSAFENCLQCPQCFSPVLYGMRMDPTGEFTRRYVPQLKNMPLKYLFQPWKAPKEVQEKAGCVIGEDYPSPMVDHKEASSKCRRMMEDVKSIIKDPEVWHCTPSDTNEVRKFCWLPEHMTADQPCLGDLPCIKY
The assay can be described thus: UV/Vis spectroscopy of FAD photoreduction. Format: binding. To be noted: naturalistic sunlight, on ice; pH 8.0; co-purified FAD.

Assay [3] deals with T3, PdLCry (L-CRY) (Platynereis dumerilii, UniProt Z9ZPX6J9J5).
T3 construct: full length, N-terminal His6 tag, expressed in Sf9 insect cells (pCoofy27, baculovirus); 565 residues, model 31-556; homodimer in dark, monomer under blue light
T3 sequence (Z9ZPX6J9J5 1-565): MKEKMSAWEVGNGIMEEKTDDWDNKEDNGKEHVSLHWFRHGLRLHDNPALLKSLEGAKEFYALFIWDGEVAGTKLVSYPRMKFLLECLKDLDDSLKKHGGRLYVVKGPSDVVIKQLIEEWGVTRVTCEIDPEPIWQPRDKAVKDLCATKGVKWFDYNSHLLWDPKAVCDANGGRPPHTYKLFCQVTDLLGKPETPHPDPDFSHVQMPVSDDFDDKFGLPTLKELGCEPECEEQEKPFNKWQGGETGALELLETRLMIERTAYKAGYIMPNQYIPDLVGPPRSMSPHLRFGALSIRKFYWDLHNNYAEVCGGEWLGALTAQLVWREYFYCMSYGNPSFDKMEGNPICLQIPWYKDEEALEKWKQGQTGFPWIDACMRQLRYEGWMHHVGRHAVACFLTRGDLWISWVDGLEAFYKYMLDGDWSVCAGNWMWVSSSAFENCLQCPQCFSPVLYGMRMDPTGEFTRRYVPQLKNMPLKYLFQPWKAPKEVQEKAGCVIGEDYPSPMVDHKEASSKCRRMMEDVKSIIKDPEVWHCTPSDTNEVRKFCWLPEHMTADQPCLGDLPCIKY
The assay can be described thus: cryo-EM structure of the complex, […] A. It is filed as binding. Conditions: dark state, far-red light; pH 8.0; homodimer; near stoichiometric FAD occupancy; non-covalent.

Assay [4] has as its target Platynereis dumerilii L-CRY (PdLCry), wildtype (Platynereis dumerilii). Kind of assay: cryo-EM structure; dark state: vitrified under far-red light; 0.7 mg mL^-1 in 25 mM Bis-tris propane pH 8.0, 150 mM NaCl, 1 mM TCEP, 0.01% fluorinated octyl maltoside; 2D classification and C2 refinement.
Assay [5] has the same target. The assay can be described thus: cryo-EM structure; blue light state: grids illuminated for 30 s with a 455 nm LED, vitrified within less than 5 s; 0.7 mg mL^-1 in 25 mM Bis-tris propane pH 8.0, 150 mM NaCl, 1 mM TCEP; 2D classification, C1 map filtered to 8 Å.
For assay [6] the target is unchanged. The assay can be described thus: SEC; analytical SEC with inline UV/Vis, Superdex 200 Increase 5/150 GL, far-red light (dark) conditions; 7 µL at 5 mg mL^-1; 25 mM Bis-tris propane pH 8.0, 150 mM NaCl, 1 mM TCEP.
Assay [7] concerns the target T4, PdLCry^Y352A (Platynereis dumerilii).
T4 chain: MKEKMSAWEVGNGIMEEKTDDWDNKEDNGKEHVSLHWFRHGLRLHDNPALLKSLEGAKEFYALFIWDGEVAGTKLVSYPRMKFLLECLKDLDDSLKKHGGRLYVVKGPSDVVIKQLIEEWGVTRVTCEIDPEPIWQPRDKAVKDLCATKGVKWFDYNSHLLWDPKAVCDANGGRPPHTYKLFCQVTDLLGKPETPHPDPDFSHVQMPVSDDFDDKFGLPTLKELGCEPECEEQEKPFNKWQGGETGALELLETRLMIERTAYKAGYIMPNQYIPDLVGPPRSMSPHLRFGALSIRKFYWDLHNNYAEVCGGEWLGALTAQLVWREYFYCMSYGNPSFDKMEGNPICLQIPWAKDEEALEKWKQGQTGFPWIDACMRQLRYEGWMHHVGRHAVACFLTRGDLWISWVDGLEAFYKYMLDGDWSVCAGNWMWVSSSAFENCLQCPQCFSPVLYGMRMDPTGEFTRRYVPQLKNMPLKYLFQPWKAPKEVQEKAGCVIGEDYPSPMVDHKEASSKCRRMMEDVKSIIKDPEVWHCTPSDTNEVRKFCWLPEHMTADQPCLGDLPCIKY
The assay can be described thus: SEC; final SEC step of the purification in dark or dim red light (Superdex S200 10/300 GL or HiLoad S200 16/60; 25 mM Bis-tris propane pH 8.0, 150 mM NaCl, 5% glycerol, 1 mM TCEP). Conditions: both partners purified.

In assay [8] the target is T5, PdLCry^Y352D (Platynereis dumerilii).
T5 chain: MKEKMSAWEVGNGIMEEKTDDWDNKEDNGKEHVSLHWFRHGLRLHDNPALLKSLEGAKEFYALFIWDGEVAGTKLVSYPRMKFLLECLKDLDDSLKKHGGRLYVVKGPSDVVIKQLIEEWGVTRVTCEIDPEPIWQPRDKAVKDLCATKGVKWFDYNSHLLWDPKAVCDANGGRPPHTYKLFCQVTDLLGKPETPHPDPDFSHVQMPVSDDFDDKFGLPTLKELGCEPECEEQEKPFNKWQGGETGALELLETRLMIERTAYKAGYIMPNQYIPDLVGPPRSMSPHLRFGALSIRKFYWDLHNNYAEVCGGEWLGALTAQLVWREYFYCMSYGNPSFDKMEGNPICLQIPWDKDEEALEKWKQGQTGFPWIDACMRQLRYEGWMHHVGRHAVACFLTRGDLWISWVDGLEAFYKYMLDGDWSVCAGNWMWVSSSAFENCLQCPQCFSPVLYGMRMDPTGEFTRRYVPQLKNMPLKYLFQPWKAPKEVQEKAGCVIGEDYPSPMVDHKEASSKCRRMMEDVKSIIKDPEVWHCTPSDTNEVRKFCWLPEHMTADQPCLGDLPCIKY
The description is as above. Conditions: both partners purified.

For orientation: stoichiometry N means the number of molecules, sites or subunits per partner or assembly.

As for `Cc1cc2nc3c(=O)[nH]c(=O)nc-3n(C[C@H](O)[C@H](O)[C@H](O)COP(=O)(O)OP(=O)(O)OC[C@H]3O[C@@H](n4cnc5c(N)ncnc54)[C@H](O)[C@@H]3O)c2cc1C` [flavin adenine dinucleotide], the “UV/Vis spectroscopy of FAD photoreduction” value in assay [1] and in assay [2] was “both mutations lead to a less efficient FAD photoreduction under illumination conditions mimicking naturalistic sunlight” throughout. Also, in assay [3], the “cryo-EM structure of the complex, 2.6 A” value was “We observe a near stochiometric occupancy of the ligand FAD”.

In assay [4], “Platynereis dumerilii L-CRY (PdLCry), wildtype (natural protein)” returned a percent of the protein present as a dimer of 80% and a stoichiometry N of 2. The percent of the protein monomeric in assay [5] is above 90%. Also, the stoichiometry N in assay [6] was determined as 2.

B1: PdLCry^Y352A (natural protein)
chain: MKEKMSAWEVGNGIMEEKTDDWDNKEDNGKEHVSLHWFRHGLRLHDNPALLKSLEGAKEFYALFIWDGEVAGTKLVSYPRMKFLLECLKDLDDSLKKHGGRLYVVKGPSDVVIKQLIEEWGVTRVTCEIDPEPIWQPRDKAVKDLCATKGVKWFDYNSHLLWDPKAVCDANGGRPPHTYKLFCQVTDLLGKPETPHPDPDFSHVQMPVSDDFDDKFGLPTLKELGCEPECEEQEKPFNKWQGGETGALELLETRLMIERTAYKAGYIMPNQYIPDLVGPPRSMSPHLRFGALSIRKFYWDLHNNYAEVCGGEWLGALTAQLVWREYFYCMSYGNPSFDKMEGNPICLQIPWAKDEEALEKWKQGQTGFPWIDACMRQLRYEGWMHHVGRHAVACFLTRGDLWISWVDGLEAFYKYMLDGDWSVCAGNWMWVSSSAFENCLQCPQCFSPVLYGMRMDPTGEFTRRYVPQLKNMPLKYLFQPWKAPKEVQEKAGCVIGEDYPSPMVDHKEASSKCRRMMEDVKSIIKDPEVWHCTPSDTNEVRKFCWLPEHMTADQPCLGDLPCIKY
modifications: FAD bound; dimer in dark / FAD bound; dimer in dark
Take B1: the “stoichiometry N” value in assay [7] came to 2.

B2: PdLCry^Y352D (natural protein)
chain: MKEKMSAWEVGNGIMEEKTDDWDNKEDNGKEHVSLHWFRHGLRLHDNPALLKSLEGAKEFYALFIWDGEVAGTKLVSYPRMKFLLECLKDLDDSLKKHGGRLYVVKGPSDVVIKQLIEEWGVTRVTCEIDPEPIWQPRDKAVKDLCATKGVKWFDYNSHLLWDPKAVCDANGGRPPHTYKLFCQVTDLLGKPETPHPDPDFSHVQMPVSDDFDDKFGLPTLKELGCEPECEEQEKPFNKWQGGETGALELLETRLMIERTAYKAGYIMPNQYIPDLVGPPRSMSPHLRFGALSIRKFYWDLHNNYAEVCGGEWLGALTAQLVWREYFYCMSYGNPSFDKMEGNPICLQIPWDKDEEALEKWKQGQTGFPWIDACMRQLRYEGWMHHVGRHAVACFLTRGDLWISWVDGLEAFYKYMLDGDWSVCAGNWMWVSSSAFENCLQCPQCFSPVLYGMRMDPTGEFTRRYVPQLKNMPLKYLFQPWKAPKEVQEKAGCVIGEDYPSPMVDHKEASSKCRRMMEDVKSIIKDPEVWHCTPSDTNEVRKFCWLPEHMTADQPCLGDLPCIKY
modifications: FAD bound; dimer in dark / FAD bound; dimer in dark
As for B2, the “stoichiometry N” value in assay [8] is 2.
